Experimental data as given in the Human Domainome abundance scans (Beltran et al. 2025).
± gives the uncertainty stated by the source.

Assay: abundance fitness (aPCA) (normalised: wild type 0, dead -1); higher = more abundant; growth selection in yeast, the domain comes from the species named
Details: Homo sapiens

Substance | abundance fitness
Transcriptional activator Myb V193W, P10242 | -0.075 ± 0.068
Transcriptional activator Myb V193Y, P10242 | -0.117 ± 0.23
Transcriptional activator Myb W147A, P10242 | -0.681 ± 0.043
Transcriptional activator Myb W147C, P10242 | -0.638 ± 0.042
Transcriptional activator Myb W147D, P10242 | -0.699 ± 0.052
Transcriptional activator Myb W147E, P10242 | -0.563 ± 0.058
Transcriptional activator Myb W147F, P10242 | 0.081 ± 0.038
Transcriptional activator Myb W147G, P10242 | -0.699 ± 0.036
Transcriptional activator Myb W147I, P10242 | -0.406 ± 0.043
Transcriptional activator Myb W147K, P10242 | -0.674 ± 0.06
Transcriptional activator Myb W147L, P10242 | -0.434 ± 0.035
Transcriptional activator Myb W147M, P10242 | -0.274 ± 0.048
Transcriptional activator Myb W147N, P10242 | -0.65 ± 0.042
Transcriptional activator Myb W147P, P10242 | -0.532 ± 0.052
Transcriptional activator Myb W147Q, P10242 | -0.593 ± 0.055
Transcriptional activator Myb W147R, P10242 | -0.824 ± 0.039
Transcriptional activator Myb W147S, P10242 | -0.63 ± 0.036
Transcriptional activator Myb W147T, P10242 | -0.542 ± 0.044
Transcriptional activator Myb W147V, P10242 | -0.65 ± 0.036
Transcriptional activator Myb W147Y, P10242 | -0.22 ± 0.045
Transcriptional activator Myb W166A, P10242 | -0.467 ± 0.097
Transcriptional activator Myb W166C, P10242 | -0.566 ± 0.093
Transcriptional activator Myb W166D, P10242 | -0.687 ± 0.15

Substance | abundance fitness
Transcriptional activator Myb W166F, P10242 | -0.474 ± 0.14
Transcriptional activator Myb W166G, P10242 | -0.543 ± 0.056
Transcriptional activator Myb W166H, P10242 | -0.455 ± 0.17
Transcriptional activator Myb W166I, P10242 | -0.834 ± 0.17
Transcriptional activator Myb W166K, P10242 | -0.786 ± 0.2
Transcriptional activator Myb W166L, P10242 | -0.986 ± 0.14
Transcriptional activator Myb W166M, P10242 | -0.708 ± 0.15
Transcriptional activator Myb W166N, P10242 | -0.349 ± 0.2
Transcriptional activator Myb W166P, P10242 | -0.359 ± 0.15
Transcriptional activator Myb W166Q, P10242 | -0.708 ± 0.1
Transcriptional activator Myb W166R, P10242 | -0.761 ± 0.062
Transcriptional activator Myb W166S, P10242 | -0.615 ± 0.091
Transcriptional activator Myb W166T, P10242 | -0.63 ± 0.11
Transcriptional activator Myb W166V, P10242 | -0.615 ± 0.075
Transcriptional activator Myb W166Y, P10242 | -0.377 ± 0.14
Transcriptional activator Myb W185A, P10242 | -0.736 ± 0.071
Transcriptional activator Myb W185C, P10242 | -0.755 ± 0.12
Transcriptional activator Myb W185D, P10242 | -0.658 ± 0.17
Transcriptional activator Myb W185E, P10242 | -0.614 ± 0.068
Transcriptional activator Myb W185F, P10242 | -0.037 ± 0.075
Transcriptional activator Myb W185G, P10242 | -0.702 ± 0.046
Transcriptional activator Myb W185K, P10242 | -0.553 ± 0.11
Transcriptional activator Myb W185L, P10242 | -0.509 ± 0.067

Substance | abundance fitness
Transcriptional activator Myb W185M, P10242 | -0.327 ± 0.13
Transcriptional activator Myb W185N, P10242 | -0.55 ± 0.14
Transcriptional activator Myb W185P, P10242 | -0.688 ± 0.15
Transcriptional activator Myb W185Q, P10242 | -1.05 ± 0.25
Transcriptional activator Myb W185R, P10242 | -0.686 ± 0.066
Transcriptional activator Myb W185S, P10242 | -0.648 ± 0.083
Transcriptional activator Myb W185T, P10242 | -0.705 ± 0.12
Transcriptional activator Myb W185V, P10242 | -0.246 ± 0.053
Transcriptional activator Myb W185Y, P10242 | -0.034 ± 0.14
Transcriptional activator Myb Y156A, P10242 | -0.056 ± 0.049
Transcriptional activator Myb Y156C, P10242 | -0.069 ± 0.076
Transcriptional activator Myb Y156D, P10242 | -0.049 ± 0.086
Transcriptional activator Myb Y156E, P10242 | -0.124 ± 0.055
Transcriptional activator Myb Y156F, P10242 | 0.091 ± 0.11
Transcriptional activator Myb Y156G, P10242 | -0.237 ± 0.034
Transcriptional activator Myb Y156H, P10242 | -0.021 ± 0.11
Transcriptional activator Myb Y156I, P10242 | -0.061 ± 0.13
Transcriptional activator Myb Y156K, P10242 | -0.13 ± 0.062
Transcriptional activator Myb Y156L, P10242 | 0.004 ± 0.047
Transcriptional activator Myb Y156N, P10242 | -0.33 ± 0.12
Transcriptional activator Myb Y156P, P10242 | -0.859 ± 0.1
Transcriptional activator Myb Y156Q, P10242 | -0.014 ± 0.073
Transcriptional activator Myb Y156R, P10242 | -0.102 ± 0.037

Substance | abundance fitness
Transcriptional activator Myb Y156S, P10242 | -0.036 ± 0.047
Transcriptional activator Myb Y156T, P10242 | -0.09 ± 0.072
Transcriptional activator Myb Y156V, P10242 | -0.056 ± 0.046
Transcriptional activator Myb Y156W, P10242 | -0.074 ± 0.046
Transcriptional activator Myb Y198A, P10242 | 0.01 ± 0.086
Transcriptional activator Myb Y198C, P10242 | -0.16 ± 0.14
Transcriptional activator Myb Y198D, P10242 | -0.035 ± 0.12
Transcriptional activator Myb Y198E, P10242 | 0.057 ± 0.099
Transcriptional activator Myb Y198F, P10242 | -0.033 ± 0.17
Transcriptional activator Myb Y198G, P10242 | -0.041 ± 0.065
Transcriptional activator Myb Y198H, P10242 | -0.145 ± 0.2
Transcriptional activator Myb Y198I, P10242 | 0.093 ± 0.12
Transcriptional activator Myb Y198K, P10242 | -0.011 ± 0.13
Transcriptional activator Myb Y198L, P10242 | 0.027 ± 0.089
Transcriptional activator Myb Y198M, P10242 | -0.01 ± 0.1
Transcriptional activator Myb Y198N, P10242 | 0.067 ± 0.11
Transcriptional activator Myb Y198P, P10242 | 0.016 ± 0.14
Transcriptional activator Myb Y198Q, P10242 | -0.02 ± 0.1
Transcriptional activator Myb Y198R, P10242 | 0.054 ± 0.063
Transcriptional activator Myb Y198S, P10242 | 0.025 ± 0.065
Transcriptional activator Myb Y198T, P10242 | -0.071 ± 0.1
Transcriptional activator Myb Y198V, P10242 | -0.042 ± 0.069
Transcriptional activator Myb Y198W, P10242 | -0.133 ± 0.095
